Where no end group is shown, it is not given here.
Target: T1, Staphylococcus aureus sortase A C184A mutant (residues 60-206) (Staphylococcus aureus, UniProt Q2FV99 60-206, C184A)
T1 construct: Sortase A, Staphylococcus aureus, residues 60-206 (SrtAΔN59) with the active-site mutation C184A; Uniformly 15N-labelled for the NMR titrations; gene cloned into a PET3a vector; also called SrtA C184A; active-site mutant C184A; source: E. coli BL21 (Rosetta), purified (anion exchange, Superdex75 gel filtration)
T1 sequence (looked up): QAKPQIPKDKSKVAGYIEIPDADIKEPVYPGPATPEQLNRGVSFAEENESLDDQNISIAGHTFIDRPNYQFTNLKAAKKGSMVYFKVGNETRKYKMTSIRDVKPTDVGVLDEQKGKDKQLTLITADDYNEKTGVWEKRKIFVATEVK
Assay: NMR titration; 15N-HSQC titration of the protein-Ca2+ complex at increased concentration with QALPETG-NH2; linear chemical shift changes only, far from saturation
Details: both partners purified

B1: QALPETG-NH2 (peptide)
peptide: QALPETG-NH2
notes: substrate peptide with the canonical LPXTG sorting motif; also called substrate peptide; source: synthetic peptide, bought: KE Biochem Co. Ltd (China)
  Kd: > 50 mM

Source: PMC6219580, “Conversion of an amide to a high-energy thioester by Staphylococcus aureus sortase A is powered by variable binding affinity for calcium” (Scientific Reports, 2018)
